Each block holds one binder with its values, some of them ahead of it.
Legend:
[1] = molecular target: T1, Erk1 (endogenous, member of Erk1/2) (human (endogenous in human cell lines), UniProt P27361 2-379); experiment: reciprocal co-IP from HMLE lysates, western blot (FIG. 45C)
T1 construct: one entry is written for each member; also called total Erk1/2

[2] = molecular target: T2, Erk2 (endogenous, member of Erk1/2) (human (endogenous in human cell lines), UniProt P28482 2-360); experiment: as above
T2 construct: one entry is written for each member; also called total Erk1/2

[3] = molecular target: T1, Erk1 (endogenous, member of Erk1/2); experiment: co-IP from HEK293 cells (FIG. 45D)
[4] = molecular target: T2, Erk2 (endogenous, member of Erk1/2); experiment: co-IP from HEK293 cells (FIG. 45D)
[5] = molecular target: p-Erk1 (phosphorylated Erk1, member of p-Erk1/2) (human (endogenous in human cell lines), UniProt P27361 2-379, phosphorylated (p-Erk1/2, induced by constitutively active MEK1); sites not given); experiment: co-IP from HEK293 cells (FIG. 45D)
[6] = molecular target: p-Erk2 (phosphorylated Erk2, member of p-Erk1/2) (human (endogenous in human cell lines), UniProt P28482 2-360, phosphorylated (p-Erk1/2, induced by constitutively active MEK1); sites not given); experiment: co-IP from HEK293 cells (FIG. 45D)
Sequence of p-Erk2 (phosphorylated Erk2, member of p-Erk1/2) (P28482 2-360 limits assumed): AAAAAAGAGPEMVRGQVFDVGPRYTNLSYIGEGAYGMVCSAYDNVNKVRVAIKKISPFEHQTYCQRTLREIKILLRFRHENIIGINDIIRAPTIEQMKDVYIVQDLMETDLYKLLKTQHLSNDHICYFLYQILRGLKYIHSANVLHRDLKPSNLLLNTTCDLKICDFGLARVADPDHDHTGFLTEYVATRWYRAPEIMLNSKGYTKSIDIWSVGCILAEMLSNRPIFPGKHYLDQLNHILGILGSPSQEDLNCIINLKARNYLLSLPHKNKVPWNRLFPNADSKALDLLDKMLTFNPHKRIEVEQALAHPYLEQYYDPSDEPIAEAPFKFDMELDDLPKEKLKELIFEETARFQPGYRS

T1 sequence (P27361 2-379 limits assumed): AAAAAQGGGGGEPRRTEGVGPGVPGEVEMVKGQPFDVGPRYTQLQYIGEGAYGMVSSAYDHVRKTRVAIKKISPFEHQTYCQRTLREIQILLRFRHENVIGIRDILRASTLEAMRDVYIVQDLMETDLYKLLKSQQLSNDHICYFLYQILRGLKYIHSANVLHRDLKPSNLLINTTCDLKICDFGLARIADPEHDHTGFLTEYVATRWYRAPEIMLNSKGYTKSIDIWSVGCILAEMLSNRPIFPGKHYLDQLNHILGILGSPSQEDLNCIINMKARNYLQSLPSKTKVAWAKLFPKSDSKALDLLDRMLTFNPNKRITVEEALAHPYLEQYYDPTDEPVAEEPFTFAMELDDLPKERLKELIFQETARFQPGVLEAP
T2 sequence (P28482 2-360 limits assumed): as the sequence (P28482 2-360 limits assumed) above
Sequence of p-Erk1 (phosphorylated Erk1, member of p-Erk1/2) (P27361 2-379 limits assumed): as the sequence (P27361 2-379 limits assumed) above

binding result [1]: binds
binding result [2]: binds
B1: endogenous Rab2A (enzyme, human (endogenous in human HMLE cells), UniProt P61019 2-212, looked up)
chain: AYAYLFKYIIIGDTGVGKSCLLLQFTDKRFQPVHDLTIGVEFGARMITIDGKQIKLQIWDTAGQESFRSITRSYYRGAAGALLVYDITRRDTFNHLTTWLEDARQHSNSNMVIMLIGNKSDLESRREVKKEEGEAFAREHGLIFMETSAKTASNVEEAFINTAKEIYEKIQEGVFDINNEANGIKIGPQHAATNATHAGNQGGQQAGGGCC

binding result [3]: binds
binding result [4]: binds
binding result [5]: binds
binding result [6]: binds
B2: Flag-Rab2A (enzyme, UniProt P61019 1-212, looked up, not shown: small tags and cut ends)
chain: MAYAYLFKYIIIGDTGVGKSCLLLQFTDKRFQPVHDLTIGVEFGARMITIDGKQIKLQIWDTAGQESFRSITRSYYRGAAGALLVYDITRRDTFNHLTTWLEDARQHSNSNMVIMLIGNKSDLESRREVKKEEGEAFAREHGLIFMETSAKTASNVEEAFINTAKEIYEKIQEGVFDINNEANGIKIGPQHAATNATHAGNQGGQQAGGGCC
notes: also called wild-type Rab2A

Reference: US20180064666A1 (BETH ISRAEL DEACONESS MEDICAL CENTER, published 2018)
